In series [1] the target is T1, RRV capsid protein (Ross River virus, UniProt P08491 P08491:1-270). Put plainly: light scattering, DLS and EM; 50-170 mM NaCl; ionic strength dependent pseudo-critical concentration. The following applies: chain copies: assembles into core-like particles; about 4 per oligonucleotide.
Series [2] has as its target T1, RRV capsid protein. Kind of series: intermolecular FRET; 1 uM DNA; saturates at 4 proteins per oligo. The following applies: chain copies: assembles into core-like particles; about 4 per oligonucleotide; label: Cy3 (D27) or Cy5 (A27).
Series [3] addresses T2, HBV capsid protein Cp183 (Hepatitis B virus, UniProt P03146 P03146:1-183). Put plainly: intermolecular FRET and light scattering; 1 uM DNA; maximum near 3:1 then signal falls by dilution. The following applies: chain copies: dimer (stated); assembles into capsids; label: Cy3 (D27) or Cy5 (A27). The method, then: (§1) Assembly was monitored by fluorescence. All reactions were carried out at 21° C. For the Cy3 donor and Cy5 acceptor fluorophores, fluorescence emission spectra for FRET experiments was measured from 555-710 nm. For measuring FRET in titrations, donor and acceptor excitation wavelengths were 545 and 645 nm respectively. Acceptor emission was measured at 670 nm.
Using the optimized A:D ratio, we evaluated the sensitivity of this FRET assay for assembly. This was necessary to determine if reaction volumes and concentrations could be lowered to physiologically relevant levels. […] The minimum detectable concentration of DNA in these assays is 50 nM. Initial results shown in FIG. 1 are protein titrations of 1 μM DNA showing the assay works under more aggressive conditions. Assembly led to an increase in FRET, that was maximal at a specific protein concentration and then fell as more protein was added.

The target of series [4] is T3, BMV capsid protein (Brome mosaic virus, UniProt P03602 P03602:1-189).
T3 sequence: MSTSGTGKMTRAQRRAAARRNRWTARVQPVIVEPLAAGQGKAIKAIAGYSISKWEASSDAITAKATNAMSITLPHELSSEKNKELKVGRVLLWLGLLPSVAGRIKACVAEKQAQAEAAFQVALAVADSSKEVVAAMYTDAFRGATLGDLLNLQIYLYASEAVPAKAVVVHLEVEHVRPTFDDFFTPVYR
Kind of series: intermolecular FRET; 1 uM DNA; saturates at about 10 proteins per oligo. The following applies: chain copies: assembles into capsids; label: Cy3 (D27) or Cy5 (A27).

Series [5] deals with T2, HBV capsid protein Cp183. Put plainly: FRET increase; 0.1 uM DNA. The following applies: chain copies: dimer (stated); assembles into capsids; label: Cy3 and Cy5 at the two ends. The method, then: as §1
For comparison, DA was titrated with Cp183 and the results were compared to those obtained with GagΔ. FIGS. 4A and 4B show the spectra for HIV-1 GagΔ and HBV Cp183 respectively. Spectra obtained by titrating DA with GagΔ and Cp183 both show increases in FRET signal.

T2 sequence (P03146 whole entry, one chain of several): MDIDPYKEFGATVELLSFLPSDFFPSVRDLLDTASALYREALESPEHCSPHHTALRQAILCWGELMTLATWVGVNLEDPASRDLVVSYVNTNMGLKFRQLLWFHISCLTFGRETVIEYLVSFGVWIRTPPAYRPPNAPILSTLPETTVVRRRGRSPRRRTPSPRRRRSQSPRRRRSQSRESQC
T1 sequence (P08491 1-270, one chain of several): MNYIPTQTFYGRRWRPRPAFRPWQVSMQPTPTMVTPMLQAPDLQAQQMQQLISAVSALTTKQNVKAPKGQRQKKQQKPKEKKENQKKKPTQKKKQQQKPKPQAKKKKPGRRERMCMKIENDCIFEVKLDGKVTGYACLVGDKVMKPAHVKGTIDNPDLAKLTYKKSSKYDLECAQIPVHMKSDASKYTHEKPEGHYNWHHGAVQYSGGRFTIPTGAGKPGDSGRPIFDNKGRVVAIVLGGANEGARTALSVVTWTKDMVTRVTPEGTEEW

For the molecule TACCCACGCTCTCGCAGTCATAATTCG (ssDNA) [unlabeled 27-mer], the binding result in series [1] is “binds”.

With TACCCACGCTCTCGCAGTCATAATTCG (ssDNA) [27-mer D27/A27 1:1 mix], the binding result in series [2], in series [3] and in series [4] was “binds” in each case.

With TGTGTGTGTGAAAAAAAAAAAAAAAAAAAATGTGTGTGTG (ssDNA) [DA 40-mer], in series [5], the binding result was “binds”.
